Consider 3 molecules from patent US20040106120A1, “Diagnosis and treatment of disease” (priority 2000, published 2004).

The target in experiment [1] is T1, Corneodesmosin (Homo sapiens, UniProt Q15517).
T1 construct: The native form of corneodesmosin has a molecular weight of between 50 and 56 kDa; from tissue; host or cells: human epidermis (TENP-40 buffer extract)
T1 sequence (Q15517 33-529): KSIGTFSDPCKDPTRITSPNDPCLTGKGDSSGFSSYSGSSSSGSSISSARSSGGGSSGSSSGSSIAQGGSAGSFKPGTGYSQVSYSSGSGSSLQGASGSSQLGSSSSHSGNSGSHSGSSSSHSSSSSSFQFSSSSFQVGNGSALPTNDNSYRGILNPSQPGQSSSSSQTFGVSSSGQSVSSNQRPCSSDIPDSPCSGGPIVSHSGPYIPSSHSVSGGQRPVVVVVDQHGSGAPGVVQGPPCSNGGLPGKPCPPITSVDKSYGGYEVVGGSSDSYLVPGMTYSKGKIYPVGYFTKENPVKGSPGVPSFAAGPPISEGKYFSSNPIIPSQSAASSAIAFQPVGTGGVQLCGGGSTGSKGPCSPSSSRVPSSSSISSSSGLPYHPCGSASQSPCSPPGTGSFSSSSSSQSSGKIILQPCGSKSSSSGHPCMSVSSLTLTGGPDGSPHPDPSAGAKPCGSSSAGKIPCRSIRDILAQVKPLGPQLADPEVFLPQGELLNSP
The experiment is described as follows: Cleavage of adhesion proteins from human epidermis by recombinant SCCE/SCTE (immunoblot). The conditions noted are these: human epidermis protein extract incubated with active recombinant enzyme at 37 C. It counts as biochemical. The procedure: (§1) Recombinant ProSCCE is produced and purified as described above. Recombinant ProSCCE is activated with agarose-bound trypsin, as described in Brasttsand & Egelrud, 1999.
(§2) Proteins are extracted from human epidermis in the presence of a detergent (TENP-40 buffer extract) and incubated with active SCCE for 37 C. for 4 h. The reactions are stopped by boiling for 2 mins after Laemmli's sample buffer is added. The proteins are immunoblotted with antibodies against corneodesmosomal proteins.
In general terms: A western blot detects proteins with antibodies after separation by electrophoresis.

Experiment [2] has as its system Desmocollin. The experiment is described as above. It counts as biochemical. The conditions noted are these: human epidermis protein extract incubated with active recombinant enzyme at 37 C. The procedure:
as §1, §2

For experiment [3], the system named is Desmoglein. The description is as above. The conditions noted are these: human epidermis protein extract incubated with active recombinant enzyme at 37 C. Type of experiment: biochemical. The method, then:
as §1, §2

Experiment [4] relates to Desmoplakin. The description is as above. Type of experiment: biochemical. As to conditions: human epidermis protein extract incubated with active recombinant enzyme at 37 C. The method, then:
as §1, §2

The target of experiment [5] is T2, Envoplakin (Homo sapiens, UniProt Q92817).
T2 construct: The native form of Envoplakin has a molecular weight of between 124-209 kDa; from tissue; host or cells: human epidermis (TENP-40 buffer extract)
T2 sequence (Q92817 whole entry): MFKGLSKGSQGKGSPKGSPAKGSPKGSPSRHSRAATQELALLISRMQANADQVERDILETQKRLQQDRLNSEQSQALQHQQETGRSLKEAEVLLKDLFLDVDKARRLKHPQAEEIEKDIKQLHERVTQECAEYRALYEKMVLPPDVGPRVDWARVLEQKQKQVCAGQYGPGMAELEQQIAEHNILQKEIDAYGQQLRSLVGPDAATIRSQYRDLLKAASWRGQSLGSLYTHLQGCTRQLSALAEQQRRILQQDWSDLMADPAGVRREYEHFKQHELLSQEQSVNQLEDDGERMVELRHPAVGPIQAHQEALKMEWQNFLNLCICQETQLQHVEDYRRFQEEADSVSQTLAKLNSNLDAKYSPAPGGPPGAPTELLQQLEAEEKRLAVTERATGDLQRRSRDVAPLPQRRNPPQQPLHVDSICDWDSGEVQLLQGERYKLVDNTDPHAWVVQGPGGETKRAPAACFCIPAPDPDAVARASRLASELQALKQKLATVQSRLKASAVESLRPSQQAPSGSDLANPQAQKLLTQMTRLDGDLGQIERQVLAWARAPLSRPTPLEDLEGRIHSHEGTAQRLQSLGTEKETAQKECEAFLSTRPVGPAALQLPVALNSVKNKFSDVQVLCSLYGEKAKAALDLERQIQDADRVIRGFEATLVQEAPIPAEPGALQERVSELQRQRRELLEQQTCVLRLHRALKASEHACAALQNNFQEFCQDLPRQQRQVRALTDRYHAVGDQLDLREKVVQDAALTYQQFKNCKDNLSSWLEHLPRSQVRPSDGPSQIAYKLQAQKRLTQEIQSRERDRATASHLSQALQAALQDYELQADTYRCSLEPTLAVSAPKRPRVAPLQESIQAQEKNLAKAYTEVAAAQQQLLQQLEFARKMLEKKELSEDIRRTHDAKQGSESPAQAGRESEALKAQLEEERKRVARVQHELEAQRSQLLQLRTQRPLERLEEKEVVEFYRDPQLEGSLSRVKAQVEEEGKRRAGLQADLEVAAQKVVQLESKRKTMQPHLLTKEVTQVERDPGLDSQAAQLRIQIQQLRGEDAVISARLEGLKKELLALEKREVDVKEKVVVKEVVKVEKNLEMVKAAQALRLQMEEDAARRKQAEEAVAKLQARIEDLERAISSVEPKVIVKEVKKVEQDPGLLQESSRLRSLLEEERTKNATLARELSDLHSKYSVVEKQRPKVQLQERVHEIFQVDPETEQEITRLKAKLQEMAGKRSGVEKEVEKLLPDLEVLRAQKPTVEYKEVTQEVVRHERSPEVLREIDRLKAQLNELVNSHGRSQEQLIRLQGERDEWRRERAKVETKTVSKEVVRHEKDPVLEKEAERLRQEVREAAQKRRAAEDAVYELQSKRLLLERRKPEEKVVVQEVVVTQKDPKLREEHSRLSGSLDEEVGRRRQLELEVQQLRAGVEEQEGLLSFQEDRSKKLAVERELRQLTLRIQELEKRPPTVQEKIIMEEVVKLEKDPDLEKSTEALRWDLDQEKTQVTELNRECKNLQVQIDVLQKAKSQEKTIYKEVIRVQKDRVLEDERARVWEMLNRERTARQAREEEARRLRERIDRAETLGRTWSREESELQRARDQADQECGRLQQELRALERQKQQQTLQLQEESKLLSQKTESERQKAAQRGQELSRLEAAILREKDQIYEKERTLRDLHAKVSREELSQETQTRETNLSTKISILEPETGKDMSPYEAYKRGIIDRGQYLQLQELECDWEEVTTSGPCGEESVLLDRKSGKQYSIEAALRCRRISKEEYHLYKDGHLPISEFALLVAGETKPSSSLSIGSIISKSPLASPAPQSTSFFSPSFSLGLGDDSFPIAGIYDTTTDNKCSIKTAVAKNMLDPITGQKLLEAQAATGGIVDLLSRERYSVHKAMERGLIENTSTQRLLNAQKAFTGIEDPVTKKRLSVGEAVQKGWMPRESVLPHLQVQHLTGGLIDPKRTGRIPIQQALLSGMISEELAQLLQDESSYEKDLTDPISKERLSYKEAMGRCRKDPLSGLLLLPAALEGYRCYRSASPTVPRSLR
The experiment is described as above. Type of experiment: biochemical. As to conditions: human epidermis protein extract incubated with active recombinant enzyme at 37 C. The procedure: as §1, §2

Experiment [6] deals with T3, Plakoglobin (Homo sapiens, UniProt P14923).
T3 construct: The native form of plakoglobin has a molecular weight of between 85 kDa and 75 kDa; from tissue; host or cells: human epidermis (TENP-40 buffer extract)
T3 sequence (P14923 1-745): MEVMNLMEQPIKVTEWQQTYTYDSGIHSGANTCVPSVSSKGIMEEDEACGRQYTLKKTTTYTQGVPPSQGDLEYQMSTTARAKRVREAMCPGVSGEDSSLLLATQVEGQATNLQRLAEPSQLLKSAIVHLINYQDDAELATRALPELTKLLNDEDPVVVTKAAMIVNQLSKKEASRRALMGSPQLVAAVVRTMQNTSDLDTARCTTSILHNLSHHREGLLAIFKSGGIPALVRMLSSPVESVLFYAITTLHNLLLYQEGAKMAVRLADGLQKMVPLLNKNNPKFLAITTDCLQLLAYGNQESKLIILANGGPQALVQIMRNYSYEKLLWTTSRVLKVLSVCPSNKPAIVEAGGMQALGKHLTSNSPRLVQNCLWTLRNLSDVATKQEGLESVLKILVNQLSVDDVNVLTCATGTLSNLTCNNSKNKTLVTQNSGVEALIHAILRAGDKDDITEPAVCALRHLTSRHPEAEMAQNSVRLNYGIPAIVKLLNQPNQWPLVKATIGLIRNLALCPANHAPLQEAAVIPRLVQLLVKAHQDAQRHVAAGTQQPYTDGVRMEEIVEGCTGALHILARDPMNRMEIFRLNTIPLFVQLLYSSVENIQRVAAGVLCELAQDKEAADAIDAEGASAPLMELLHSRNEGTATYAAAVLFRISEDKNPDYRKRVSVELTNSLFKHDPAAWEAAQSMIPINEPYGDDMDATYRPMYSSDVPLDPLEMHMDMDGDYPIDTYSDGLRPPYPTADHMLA
The description is as above. Type of experiment: biochemical. The conditions noted are these: human epidermis protein extract incubated with active recombinant enzyme at 37 C. The procedure: as §1, §2

For experiment [7], the system named is corneodesmosomes in stratum corneum tape strips. The experiment is described as follows: Treatment of tape strips from psoriatic skin with proteases, corneodesmosome density by electron microscopy. Further details: species or system human. The conditions noted are these: 22-50 nM recombinant SCCE or SCTE, 1-6 h at 37° C. The method, then:
Tape strips are obtained according to a method described by Guerrin et al, 1998.
Small pieces of tape strips from control patients along with patients suffering from the skin conditions eczema, psoriasis, dermatitis and psoriasis are fixed for 2 h at 4° C. in Karnovsky fixative (2% paraformaldehyde, 2.5% gluteraldehyde in 0.1M phosphate buffer, pH 7.4). The samples are then washed three times in 0.1M phosphate buffer (pH7.4) containing 10% sucrose for 30 minutes each at 4° C.
Secondary fixation is carried out in aqueous 2% osmium tetroxide solution for 1 hour at room temperature. Dehydration is through a graded series of ethanol at room temperature (75% ethanol for 15 minutes; 95% ethanol for 15 minutes; 2 washes of 100% ethanol for 15 minutes; 100% ethanol dried over anhydrous copper sulphate for 15 minutes).
For resin embedding, samples are first placed in the intermediate solvent, propylene oxide, for two changes of 15 minutes duration. This is followed by infiltration in a 50:50 mixture of propylene oxide:araldite resin overnight at room temperature. […]
Ultrathin sections (70-90 nm) are cut on an ultramicrotome. […] Electron micrographs are recorded on Agfa Scientific 23D56 EM film.
Corneodesmosome density (area occupied by corneodesmosomes divided by total area of micrograph) is measured on electron micrographs of tape strips of each condition. […]

The test system of experiment [8] is cultured skin equivalent. Kind of experiment: Treatment of skin equivalents with other protease inhibitors for 24 h, light and electron microscopy. It counts as cell-based. As to conditions: SLPI 500 nM, cultured for 24 h. The procedure:
Skin equivalent (+ and − inhibitor) is cultured with the inhibitor for 24 h. Skin equivalent are taken the preparation of histological sections. Sections are then analysed by light and electron microscopy.
SLPI (500 nM) is added to cultured skin equivalent, and cultured for 24 h. Skin equivalent (+ and − SLPI) are taken the preparation of sections. Sections are then analysed in light and electron microscopy.
SCCE antibody is added is added to cultured skin equivalent, and cultured for 24 h. Skin equivalent (+ and − SCCE antibodies) are taken the preparation of sections. Sections are then analysed in light and electron microscopy.
SCTE antibody is added is added to cultured skin equivalent, and cultured for 24 h. Skin equivalent (+ and − SCTE antibodies) are taken the preparation of sections. Sections are then analysed in light and electron microscopy.

The nature of experiment [9]: Topical protease inhibitor in emollient cream on volunteer's arm skin for 14 days, biopsy histology. Type of experiment: in vivo. As to conditions: human volunteer, emollient cream applied daily to arm for 14 days under occlusion. The source says:
SPLI protease inhibitor is extracted from normal human skin of a volunteer. Alternatively, a nucleic acid sequence encoding the protease inhibitor from the individual is cloned using PCR, or library screening. The individual's protease inhibitor sequence is cloned into an expression vector, and recombinant protease inhibitor expressed and purified using conventional and known means.
The inhibitor is then formulated in an emollient cream base. Two fingertip units of this formulation are applied to an area of the volunteer's skin on the arm measuring 2×2 cm. The area is covered with a plastic capsule which is secured in place with a cotton bandage. The cream is reapplied to the same area each day for 14 consecutive days.
On day 14 the cup is removed and a 1×0.5 cm ellipse skin biopsy is taken from the treated area and a similar biopsy taken from an untreated area on the opposite arm.

B1: SCCE: recombinant Stratum Corneum Chymotryptic Enzyme, activated with agarose-bound trypsin (protein, UniProt P49862 30-253, looked up)
Kallikrein-7: IIDGAPCARGSHPWQVALLSGNQLHCGGVLVNERWVLTAAHCKMNEYTVHLGSDTLGDRRAQRIKASKSFRHPGYSTQTHVNDLMLVKLNSQARLSSMVKKVRLPSRCEPPGTTCTVSGWGTTTSPDVTFPSDLMCVDVKLISPQDCTKVYKDLLENSMLCAGIPDSKKNACNGDSGGPLVCRGTLQGLVSWGTFPCGQPNDPGVYTQVCKFTKWINDTMKKHR
modifications: activated with trypsin
For B1, the “proteolysis of Corneodesmosin” value in [1] was “proteolysed”. For the same molecule, the “proteolysis of Desmocollin” value in experiment [2] is on record as “proteolysed”. Also, the “proteolysis of Desmoglein” value in [3] is on record as “proteolysed”. Also, in experiment [4], the “proteolysis of Desmoplakin” value is listed as “proteolysed”. Also, the “proteolysis of Envoplakin” value in experiment [5] is recorded as “proteolysed”. Also, the “proteolysis of Plakoglobin” value in [6] is listed as “proteolysed”. Moreover, the “number of corneodesmosomes in treated versus untreated stratum corneum” value in experiment [7] was “decrease significantly”.

B2: SLPI: Secretory Leukoprotease Inhibitor protein added to cultured skin equivalent (protein, UniProt P03973 26-132, looked up)
Antileukoproteinase: SGKSFKAGVCPPKKSAQCLRYKKPECQSDWQCPGKKRCCPDTCGIKCLDPVDTPNPTRRKPGKCPVTYGQCLMLNPPNFCEMDGQCKRDLKCCMGMCGKSCVSPVKA
B2: the “effect on stratum corneum thickness and skin barrier of skin equivalent” value in experiment [8] was “increase the thickness of the stratum corneum”.

B3: SPLI protease inhibitor: SLPI extracted from normal human skin or recombinant, formulated in an emollient cream base (protein, UniProt P03973 26-132, looked up)
Antileukoproteinase: B2 Antileukoproteinase
modifications: emollient cream formulation
notes: SLPI extracted from normal human skin or recombinant, formulated in an emollient cream base
With B3, in experiment [9], the “histology of stratum corneum, treated biopsy compared with control” value is listed as “thickening of the stratum corneum with loosely adherent scales”; the “histology of viable epidermis, treated biopsy compared with control” value was “parakeratosis and thickening”.
